Source: paper PMC4738263 (Scientific Reports, 2016)

Target: the molecule itself
Experiment: crystal structure; dimeric HT cyt c552 without a His-tag obtained from E. coli by freeze-thaw, purified; sitting-drop vapor diffusion at room temperature; 1.8 Å

B1: Hydrogenobacter thermophilus cytochrome c552, wild type, without a His-tag (holo protein) (natural protein, UniProt P15452 19-98, looked up)
chain: NEQLAKQKGCMACHDLKAKKVGPAYADVAKKYAGRKDAVDYLAGKIKKGGSGVWGSVPMPPQNVTDAEAKQLAQWILSIK
modifications: heme c attached (holo protein)
stoichiometry N: 2
